The source of these data is article PMC6983858.

Assay [1] addresses full-length human neurofibromin (His6-tev-NF1, 2–2818) (human) (UniProt P21359). Description: AUC; sedimentation velocity and equilibrium of full-length neurofibromin, 1.2 μM to 25 nM, 20 °C, 20 mM HEPES pH 7.4, 300 mM NaCl, 1 mM TCEP; dimer to monomers.
Assay [2] has the same target. Description: SAXS + SANS; full-length neurofibromin in solution, SAXS at 0.5 and 1.0 mg/ml, SANS at 1 mg/ml, 20 °C; molar mass from scattering.
Assay [3] shares this target. Description: SEC-MALS; single purified proteins; Superose-6 Increase or Superdex S-200 10/300 GL, Wyatt Heleos and Optilab T-Rex; BSA as standard.

The Kd is the free concentration of one partner at which half of the binding sites on the other are occupied at equilibrium, for simple one-to-one binding. The low end stands for a tighter complex, the high end for a looser complex. In general, stoichiometry N refers to the number of molecules, sites or subunits per partner or assembly. “full-length human neurofibromin (His6-tev-NF1, 2–2818), P21359-2 2-2818”: the Kd in assay [1] is below 1 nM. The stoichiometry N in assay [2] and in assay [3] was 2 throughout.
